Article PMC7959842 (2021)

Target: C3b (UniProt P01024 749-1663; P01024 749-1663, biotin (EZ-Link Maleimide-PEG2-Biotin, after 1 mM DTT) where immobilised on streptavidin chips; none where amine-coupled)
Assay: SPR; biotin-coupled C3b

C3b, sequence (P01024 23-667, chain 1 of 2): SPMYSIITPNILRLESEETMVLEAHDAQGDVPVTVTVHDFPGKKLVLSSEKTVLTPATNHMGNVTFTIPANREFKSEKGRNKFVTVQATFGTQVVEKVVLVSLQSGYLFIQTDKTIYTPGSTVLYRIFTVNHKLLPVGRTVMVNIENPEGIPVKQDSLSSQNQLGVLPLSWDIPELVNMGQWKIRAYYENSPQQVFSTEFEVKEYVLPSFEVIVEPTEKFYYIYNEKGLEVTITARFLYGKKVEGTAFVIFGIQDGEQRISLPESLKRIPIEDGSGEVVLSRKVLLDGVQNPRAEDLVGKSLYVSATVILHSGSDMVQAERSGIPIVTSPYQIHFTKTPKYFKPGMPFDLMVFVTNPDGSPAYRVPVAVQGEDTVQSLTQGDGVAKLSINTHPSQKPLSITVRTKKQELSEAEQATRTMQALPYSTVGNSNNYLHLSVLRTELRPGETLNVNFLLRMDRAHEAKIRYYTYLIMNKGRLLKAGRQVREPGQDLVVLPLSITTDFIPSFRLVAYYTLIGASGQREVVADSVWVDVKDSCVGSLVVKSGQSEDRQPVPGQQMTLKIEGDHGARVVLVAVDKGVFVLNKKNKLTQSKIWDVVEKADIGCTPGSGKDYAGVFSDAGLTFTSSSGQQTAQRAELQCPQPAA
C3b, sequence (P01024 749-1663, chain 2 of 2): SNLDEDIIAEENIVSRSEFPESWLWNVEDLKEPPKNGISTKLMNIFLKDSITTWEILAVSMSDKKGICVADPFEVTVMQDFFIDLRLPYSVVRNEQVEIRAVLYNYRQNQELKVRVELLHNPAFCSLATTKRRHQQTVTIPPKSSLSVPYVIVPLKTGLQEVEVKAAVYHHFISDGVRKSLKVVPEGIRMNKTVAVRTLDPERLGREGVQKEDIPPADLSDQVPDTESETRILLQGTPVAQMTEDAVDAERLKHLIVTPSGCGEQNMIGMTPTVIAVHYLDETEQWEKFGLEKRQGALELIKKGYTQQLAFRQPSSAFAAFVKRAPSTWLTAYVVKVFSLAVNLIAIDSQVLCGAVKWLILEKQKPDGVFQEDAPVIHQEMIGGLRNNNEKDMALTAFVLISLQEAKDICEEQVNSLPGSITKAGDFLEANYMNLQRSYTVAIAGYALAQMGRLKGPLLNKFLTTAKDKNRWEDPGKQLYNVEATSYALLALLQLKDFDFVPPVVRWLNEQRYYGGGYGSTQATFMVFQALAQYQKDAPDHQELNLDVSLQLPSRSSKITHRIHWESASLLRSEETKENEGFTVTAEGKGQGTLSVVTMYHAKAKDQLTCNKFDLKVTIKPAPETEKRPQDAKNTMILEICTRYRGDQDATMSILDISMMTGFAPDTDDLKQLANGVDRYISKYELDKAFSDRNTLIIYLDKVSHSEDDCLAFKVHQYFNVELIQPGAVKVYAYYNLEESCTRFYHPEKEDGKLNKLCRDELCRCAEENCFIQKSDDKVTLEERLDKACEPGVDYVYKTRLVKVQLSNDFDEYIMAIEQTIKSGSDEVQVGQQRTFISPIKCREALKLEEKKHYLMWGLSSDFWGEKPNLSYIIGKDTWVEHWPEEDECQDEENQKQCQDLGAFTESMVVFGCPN

B1: FHR-1 (factor H-related protein 1, FHR-1*B, wild-type) (natural protein)
chain: EATFCDFPKINHGILYDEEKYKPFSQVPTGEVFYYSCEYNFVSPSKSFWTRITCTEEGWSPTPKCLRLCFFPFVENGHSESSGQTHLEGDTVQIICNTGYRLQNNENNISCVERGWSTPPKCRSTDTSCVNPPTVQNAYIVSRQMSKYPSGERVRYQCRSPYEMFGDEEVMCLNGNWTEPPQCKDSTGKCGPPPPIDNGDITSFPLSVYAPASSVEYQCQNLYQLEGNKRITCRNGQWSEPPKCLHPCVISREIMENYNIALRWTAKQKLYLRTGESAEFVCKRGYRLSSRSHTLRTTCWDGKLEYPTCAKR
- Kd: 0.6 µM

B2: FH18-20 (domain or fragment)
chain: TSCVNPPTVQNAYIVSRQMSKYPSGERVRYQCRSPYEMFGDEEVMCLNGNWTEPPQCKDSTGKCGPPPPIDNGDITSFPLSVYAPASSVEYQCQNLYQLEGNKRITCRNGQWSEPPKCLHPCVISREIMENYNIALRWTAKQKLYSRTGESVEFVCKRGYRLSSRSHTLRTTCWDGKLEYPTCAKR
- Kd: 9.9 µM

B3: FH18-20(LA) (domain or fragment)
chain: TSCVNPPTVQNAYIVSRQMSKYPSGERVRYQCRSPYEMFGDEEVMCLNGNWTEPPQCKDSTGKCGPPPPIDNGDITSFPLSVYAPASSVEYQCQNLYQLEGNKRITCRNGQWSEPPKCLHPCVISREIMENYNIALRWTAKQKLYLRTGESAEFVCKRGYRLSSRSHTLRTTCWDGKLEYPTCAKR
- Kd: 5.8 µM

B4: FH18-20(LV) (domain or fragment)
chain: TSCVNPPTVQNAYIVSRQMSKYPSGERVRYQCRSPYEMFGDEEVMCLNGNWTEPPQCKDSTGKCGPPPPIDNGDITSFPLSVYAPASSVEYQCQNLYQLEGNKRITCRNGQWSEPPKCLHPCVISREIMENYNIALRWTAKQKLYLRTGESVEFVCKRGYRLSSRSHTLRTTCWDGKLEYPTCAKR
- Kd: 5.6 µM

B5: FH18-20(SA) (domain or fragment)
chain: TSCVNPPTVQNAYIVSRQMSKYPSGERVRYQCRSPYEMFGDEEVMCLNGNWTEPPQCKDSTGKCGPPPPIDNGDITSFPLSVYAPASSVEYQCQNLYQLEGNKRITCRNGQWSEPPKCLHPCVISREIMENYNIALRWTAKQKLYSRTGESAEFVCKRGYRLSSRSHTLRTTCWDGKLEYPTCAKR
- Kd: 10 µM
